Data on one substance can be found in PMC2883962.

The experiment has as its target prostate apoptosis response protein 4 (Par-4), endogenous in native colon cancer cells (human (endogenous in HT29 and SW480)) (UniProt Q96IZ0). Nature of the experiment: co-IP; Par-4 immunoprecipitated from lysates of native HT29 cells treated for 24 h with vehicle or 12.5 or 25 μM ISC-4 (AKT inhibitor); immunoprecipitates immunoblotted with PKA, NFκB p50 and 14-3-3 antibodies.
Sequence of UniProt Q96IZ0 (Q96IZ0 whole entry): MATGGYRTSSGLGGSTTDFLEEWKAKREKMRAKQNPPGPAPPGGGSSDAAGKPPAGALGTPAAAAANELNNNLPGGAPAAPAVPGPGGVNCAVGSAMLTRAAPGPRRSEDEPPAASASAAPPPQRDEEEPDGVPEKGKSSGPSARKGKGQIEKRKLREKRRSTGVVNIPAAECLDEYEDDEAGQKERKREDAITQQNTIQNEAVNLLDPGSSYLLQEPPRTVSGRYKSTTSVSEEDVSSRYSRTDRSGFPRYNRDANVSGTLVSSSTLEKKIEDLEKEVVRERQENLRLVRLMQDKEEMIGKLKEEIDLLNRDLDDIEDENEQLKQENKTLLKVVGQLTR

Sequence of 14-3-3 (P63104 whole entry): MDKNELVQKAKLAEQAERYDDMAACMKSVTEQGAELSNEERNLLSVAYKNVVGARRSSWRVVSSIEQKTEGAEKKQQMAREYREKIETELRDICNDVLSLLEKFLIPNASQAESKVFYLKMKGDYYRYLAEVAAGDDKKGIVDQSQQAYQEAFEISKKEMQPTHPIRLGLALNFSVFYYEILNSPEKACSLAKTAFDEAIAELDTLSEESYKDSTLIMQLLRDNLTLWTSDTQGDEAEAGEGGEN

As for “14-3-3 (from UniProt P63104 1-245) (natural protein)”, the fold decrease of Par-4 binding with ISC-4 against vehicle turned out to be 3 fold.
